Measured values reported in the supplement of paper PMC9732359.
± gives the uncertainty stated by the source.

test: protein stability index of a GFP-peptide fusion (yeast GPS) (PSI 1-4); higher = more stable; sorted into four equal gates, so the index is relative within each strain; settings: pdr5∆
Method in brief: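 Each library plasmid carries Cherry plus GFP with a tiled 17-residue yeast protein peptide fused downstream, and the pooled library was carried in yeast. Mid-log cultures in leucine-free medium were sorted into four equal gates by GFP/Cherry ratio. Reads from Illumina sequencing of PCR-amplified plasmids from each gate were assigned to strains by barcodes. Per peptide, the protein stability index was computed as the summed products of gate read frequency and gate number.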

Sequence	protein stability index
QQPQTNTAPGLGNTVST [YGR119C/NUP57]	3.34 ± 0.1
QQQIIKIRITLTSTKVK [RPS20]	1.84 ± 0.048
QQQQDLQQQQQVVTTVA [SNF6]	1.87 ± 0.083
QQQQQQQQQQQHIYPSS [GAL11]	2.78 ± 0.02
QQSTDADEDDEDAKYVI [RPT1]	3.56 ± 0.27
QQVEGKLSQMILDKIFY [RPN6]	2.84 ± 0.081
QREAAAEYAQLLAKRLS [RPS6A]	1.6 ± 0.055
QRKKQSDVLRFLQRVRV [RPL15A]	2.26 ± 0.21
QRLIFAGKQLEDGRTLS [RPS31]	2.97 ± 0.078
QSLGLDDLQKFNGIENQ [ISW2]	2.73 ± 0.082
QSQLNVTLSQLVSVTST [MED8]	1.79 ± 0.026
QSSESFDDSDITKFALF [YML103C/NUP188]	2.23 ± 0.071
QSSLDVAGLEDKFRKAC [SIR3]	3.18 ± 0.16
QSSLSKVDIPLEVVQYI [NUT2]	2.16 ± 0.086
QTAVTCESCSTILCTPT [RPS27A]	2.05 ± 0.044
QTKEIKTERVEDQKVVD [RPL6B]	3.33 ± 0.11
QTKENKRCVGVILGDAN [RPN8]	2.9 ± 0.05
QTPAEKHAFMGTLKKDL [RPL3]	3.21 ± 0.062
QTWSYLSLYSTDLENSS [ECM29]	2.25 ± 0.052
QVIVDIFSVHGNTVVDG [YCG1]	2.12 ± 0.068
QVLVTTNQDGLKFVKVR [RPB2]	1.78 ± 0.1
QVRNQVFMLDTKRLGTP [RGR1]	2.46 ± 0.11
QVSEVDPGRYNKVCRIE [RPB8]	3.04 ± 0.081
QWIKFLLHTLYLRPASA [SSN8]	1.59 ± 0.042
QWSIEIVLLDDEGKEIP [TAF14]	2.1 ± 0.06
QYEHLIKGIREYEEWQK [YDL116W/NUP84]	2.99 ± 0.079

Sequence	protein stability index
QYTQRLSKLEKALDRHE [SRP68]	2.65 ± 0.035
RAAKLAAPENEKPAPVR [RPS15]	3.15 ± 0.11
RAASVGSLKLIELLCGL [NAS6]	2.13 ± 0.11
RADTMDFKTDVDEPMTS [YJL039C/NUP192]	3.28 ± 0.089
RAGIIIAKLSVIPIRRG [RPS2]	2.13 ± 0.047
RAGVSQVLNRYTYSSTL [RPB2]	2.9 ± 0.041
RAIDSLIQKGYLQRGDD [CDC53]	1.94 ± 0.069
RALFETKLNLHCVIEDD [RRI1]	2.8 ± 0.071
RALKVRNAQAQREAAAE [RPS6A]	2.98 ± 0.1
RARLKGKEGRIRGNLMG [RPO21]	3.19 ± 0.12
RCFSCGKVVGDKWESYL [RPB10]	2.11 ± 0.1
RCNDNLMRSCFYLMVSS [YJL039C/NUP192]	1.72 ± 0.054
RCYQPFELFDNKTAHLS [SNU114]	2.71 ± 0.08
RDALRNIKNTNEEATPI [RRP6]	2.99 ± 0.081
RDDEPKLYQTEPSGIYS [PRE6]	3.07 ± 0.082
RDIEKITSLYALIRRDF [CDC53]	1.89 ± 0.03
RDREPKEPVALIETVRQ [RPN2]	3.47 ± 0.12
REDEFGSIPSLTTQFVT [YDL088C/ASM4]	2.92 ± 0.058
REDMPFTAEGIVPDLII [RPB2]	3.42 ± 0.15
REGRHSGYGKRKGTREA [RPL19A]	3.21 ± 0.27
REILCYSKDAKEIYYTP [FAS2]	2.821 ± 0.025
RELLVEGYGLRDVMCTD [RPO31]	2.57 ± 0.063
RERDITSLFHKFILSGF [RRI2]	2.07 ± 0.045
RERQVNEKLADLGLEKE [RPC53]	3.4 ± 0.16
RFMRFLADRDEFIQDSA [ECM29]	1.23 ± 0.042
RGFIKSEGSGSSLVQKG [RPC53]	3.34 ± 0.09

Sequence	protein stability index
RGFKVGLVCADTFRAGA [SRP54]	2.25 ± 0.081
RGIPRLSEDELRELDVE [SMC4]	3.68 ± 0.21
RGMLGLLEPPAKELQGI [RPO31]	1.72 ± 0.18
RGNKVNKQIEILTDLVN [ITC1]	2.75 ± 0.098
RGYFITQEEVELPLEDF [RPB5]	3.01 ± 0.16
RHFGMGPHKGKAPRILS [RPL18A]	2.52 ± 0.079
RHHRKTEKEEDAELMAD [ISW2]	3.31 ± 0.11
RHLPMYTEFIDSFIEKI [ITC1]	2.69 ± 0.075
RIAVLHQKTKTLASLSI [YGL172W/NUP49]	2.25 ± 0.062
RIDAFNALEHKYFTESD [SSN3]	3 ± 0.046
RIIRKKIFIAVVWYQRL [RRI2]	1.27 ± 0.036
RILQQLKLDKIIHVLTT [RGR1]	1.21 ± 0.053
RKASCIWLLSYIQYLGH [ECM29]	2.15 ± 0.046
RKCETQKQWDDIAFVLN [YCS4]	3.01 ± 0.076
RKCQFRTPDSISVNSSS [POP1]	2.52 ± 0.073
RKEPPATVEECVKLTVR [PRE6]	1.67 ± 0.074
RKFERARGRRRSKGFKV [RPL18A]	3.24 ± 0.094
RKFHELNDHIDDFEVNV [GRR1]	3.18 ± 0.1
RKHHKKGITEEVAKKRS [RPL24A]	3.45 ± 0.2
RKHKRVSPNAAPRQEIS [YAR002W/NUP60]	2.89 ± 0.056
RKKARTFDSSWNWAKQS [FAS2]	1.97 ± 0.12
RKRAHSLVSTQSSSSTR [REC8]	2.94 ± 0.068
RKRCKGTVGNSHKTTKE [RPL11A]	3 ± 0.17
RLELLQLSPVKNSRVEL [SMC4]	3.54 ± 0.25
RLIDLSGCENITDKTIE [GRR1]	3.21 ± 0.093
RLKFGHRLIATHTNLER [SNF2]	2.04 ± 0.054

Sequence	protein stability index
RLRTLCRDSDDHKRFIV [DIS3]	2.75 ± 0.13
RMFEKNVMLNIYPRTVI [SKI6]	1.37 ± 0.11
RMHLAPASKQGYLITPP [SSN2]	1.45 ± 0.24
RMRIFASNEVIAKSRYW [RPL20A]	2.57 ± 0.065
RNAEFKVSKNSTSFKNP [YMR153W/NUP53]	2.13 ± 0.062
RNQVQTENVAQARIILN [YGR119C/NUP57]	2.9 ± 0.092
RNVEQKLNELDELILEA [NNF1]	3.29 ± 0.059
RPFEGLFVISTEISPMA [RRP45]	2.87 ± 0.049
RPGRIDRKIEFPPPSVA [RPT6]	3.26 ± 0.07
RPHQSRESLIMLLEEQL [MED7]	2.37 ± 0.093
RPNRRGPRNTEEKGWVP [RPS2]	3.49 ± 0.13
RPQKLRASLVPGTVLIL [RPL6A]	2.32 ± 0.064
RQKARTDAHTPLARNYI [RPR2]	2.52 ± 0.058
RQNKVQHQRIVAFVCSP [RPN10]	1.4 ± 0.12
RQPSLHRLSILSHYAKI [RPO31]	2.1 ± 0.071
RRGAHGSELSSKIRKIH [SIR3]	2.02 ± 0.087
RRHRNPDLQFIVISLKN [SMC1]	1.83 ± 0.039
RRKKILNEIELDNLKLK [GRR1]	3.04 ± 0.086
RRLAFLGIKVAELTGDS [BRR2]	2.24 ± 0.19
RRLHDENLMVQRTCLMT [YCS4]	2.44 ± 0.057
RRNLRYGDRMKLAKNLQ [RPO31]	3.38 ± 0.073
RRQAVDVSPLRRVNQAI [RPS5]	2.62 ± 0.094
RRRKGISTGGFMSNDGP [SNU114]	1.47 ± 0.1
